# According to publication PMC10462622 (Nature Communications, 2023):
# T1: near-full-length human CUL5 (residues 12-780) (human, UniProt Q93034 12-780)
# T1 construct: not shown: GB1, N-terminal, cleaved
# T1 sequence: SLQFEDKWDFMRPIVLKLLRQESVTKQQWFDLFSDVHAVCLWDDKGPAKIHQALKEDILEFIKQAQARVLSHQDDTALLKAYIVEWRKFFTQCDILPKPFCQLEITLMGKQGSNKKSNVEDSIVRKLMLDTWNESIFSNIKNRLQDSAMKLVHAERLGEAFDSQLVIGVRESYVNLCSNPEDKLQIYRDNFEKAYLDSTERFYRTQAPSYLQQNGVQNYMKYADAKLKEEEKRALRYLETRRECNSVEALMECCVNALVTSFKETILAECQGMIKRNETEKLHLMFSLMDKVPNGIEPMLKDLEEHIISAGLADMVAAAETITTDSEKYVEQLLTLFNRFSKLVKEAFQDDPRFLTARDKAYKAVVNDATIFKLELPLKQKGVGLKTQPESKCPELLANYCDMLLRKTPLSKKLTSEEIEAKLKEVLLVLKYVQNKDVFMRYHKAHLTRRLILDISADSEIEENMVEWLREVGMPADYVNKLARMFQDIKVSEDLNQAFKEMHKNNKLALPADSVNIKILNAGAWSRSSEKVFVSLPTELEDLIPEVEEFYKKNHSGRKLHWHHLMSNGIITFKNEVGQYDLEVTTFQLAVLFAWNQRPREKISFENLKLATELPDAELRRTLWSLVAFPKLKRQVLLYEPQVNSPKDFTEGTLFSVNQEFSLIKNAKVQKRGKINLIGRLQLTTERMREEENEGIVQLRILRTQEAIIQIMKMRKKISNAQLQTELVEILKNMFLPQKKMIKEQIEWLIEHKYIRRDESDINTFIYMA
# Tests used:
# [1] = target: T1, near-full-length human CUL5 (residues …); assay: cryo-EM structure; settings: both partners purified
# [2] = target: T2, HIV-1 NL4-3 Vif N48H (residues 1-176) (HIV-1 (pNL4-3), UniProt P12504 1-176, N48H); assay: cryo-EM structure; settings: both partners purified
# T2 construct: also called N48H Vif; N48H NL4-3 Vif
Binder,binding result [1],binding result [2]
"human RBX2 (residues 1-113) (natural protein, also called RING-box protein 2; source: E. coli BL21(DE3), co-expressed with GB1-CUL5 (pETDuet-1), purified as CUL5/RBX2 complex (Ni-NTA, SEC)) MADVEDGEETCALASHSGSSGSKSGGDKMFSLKKWNAVAMWSWDVECDTCAICRVQVMDACLRCQAENKQEDCVVVWGECNHSFHNCCMSLWVKQNNRCPLCQQDWVVQRIGK",binds,
human CBF-β (residues 1-156) (domain or fragment) MPRVVPDQRSKFENEEFFRKLSRECEIKYTGFRDRPHEERQARFQNACRDGRSEIAFVATGTNLSLQFFPASWQGEQRQTPSREYVDLEREAGKVYLKAPMILNGVCVIWKGWIDLQRLDGMGCLEFDEERAQQEDALAQQAFEEARRRTREFEDR,,binds
